Drawing on patent CN108623681A (ZHUHAI TAINUO MAIBO BIOTECHNOLOGY CO LTD; GUANGZHOU …, dated 2018), this text covers koff and kon for one molecule.

The assay addresses 破伤风毒素 (Clostridium tetani, UniProt P04958 2-1315).

Sequence of 破伤风毒素 (P04958 2-457 limits assumed, chain 1 of 2): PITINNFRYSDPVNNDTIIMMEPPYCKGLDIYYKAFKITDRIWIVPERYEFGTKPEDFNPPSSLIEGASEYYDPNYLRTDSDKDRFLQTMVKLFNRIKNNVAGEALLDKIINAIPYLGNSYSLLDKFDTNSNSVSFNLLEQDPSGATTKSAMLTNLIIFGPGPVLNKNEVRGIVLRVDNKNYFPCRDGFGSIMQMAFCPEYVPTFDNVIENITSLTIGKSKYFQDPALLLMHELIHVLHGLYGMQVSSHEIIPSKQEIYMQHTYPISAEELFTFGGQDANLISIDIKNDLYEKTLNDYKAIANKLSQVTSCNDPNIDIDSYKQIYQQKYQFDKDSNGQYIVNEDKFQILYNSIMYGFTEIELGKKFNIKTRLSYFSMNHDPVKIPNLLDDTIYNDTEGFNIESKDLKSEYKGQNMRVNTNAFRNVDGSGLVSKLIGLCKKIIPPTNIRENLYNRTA
Sequence of 破伤风毒素 (P04958 458-1315 limits assumed, chain 2 of 2): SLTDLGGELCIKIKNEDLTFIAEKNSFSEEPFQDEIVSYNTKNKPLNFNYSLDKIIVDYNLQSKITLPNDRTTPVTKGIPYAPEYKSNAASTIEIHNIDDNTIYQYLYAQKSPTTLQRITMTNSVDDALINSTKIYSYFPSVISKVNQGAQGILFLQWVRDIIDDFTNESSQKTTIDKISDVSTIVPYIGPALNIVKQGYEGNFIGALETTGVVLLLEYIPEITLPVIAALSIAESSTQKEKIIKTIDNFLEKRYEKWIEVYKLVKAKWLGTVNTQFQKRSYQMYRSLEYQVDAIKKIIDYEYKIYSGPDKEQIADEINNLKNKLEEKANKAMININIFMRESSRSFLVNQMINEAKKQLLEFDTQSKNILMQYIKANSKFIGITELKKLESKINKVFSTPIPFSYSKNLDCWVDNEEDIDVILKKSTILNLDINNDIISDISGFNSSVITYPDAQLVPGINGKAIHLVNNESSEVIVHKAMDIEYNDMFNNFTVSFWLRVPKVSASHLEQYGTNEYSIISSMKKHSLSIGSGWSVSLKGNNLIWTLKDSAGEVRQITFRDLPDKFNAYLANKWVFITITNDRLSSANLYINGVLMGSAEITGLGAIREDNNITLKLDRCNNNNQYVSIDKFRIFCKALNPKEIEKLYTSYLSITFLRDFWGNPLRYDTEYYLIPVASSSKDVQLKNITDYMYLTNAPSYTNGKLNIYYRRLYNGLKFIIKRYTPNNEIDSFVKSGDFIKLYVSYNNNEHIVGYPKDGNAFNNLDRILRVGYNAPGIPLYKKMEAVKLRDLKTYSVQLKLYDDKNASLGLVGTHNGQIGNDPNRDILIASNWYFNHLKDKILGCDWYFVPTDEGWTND

B1: 抗体TRN1015 (antibody, V domains shown)
VH: EVQLVESGGGRVKPGGSLRLSCSVSGFGIGIYTMNWVRQAPGKGLEWVSSISGTSQYIYYANSVRGRFTISRDNAENSLYLQLNNLRAEDTALYYCVSGSSLDYWGQGTLVTISS
VL: DIQLTQSPSSLSASVGGRVTITCRASQNIGTNLNWFQQKPGTAPNLLIYGASTLQSGVPSRFSGSGSGTTFTLTIDSLQPEDFATYYCYQNYNSPKTFGQGTKVDLK
The molecule B1 yielded a dissociation rate constant (koff) of 9.4e-05 s⁻¹ and a kon of 38800 M⁻¹ s⁻¹.
